{"source": "patent US20230364234A1", "key": {"[1]": {"biological_target": "CD4-10-17b CAR with an inserted myc epitope, expressed on cells transduced with the SFFV/CAR-T-myc/GFP lentivirus (human) (UniProt P01730)", "assay": "cell-based or functional assay"}, "[2]": {"biological_target": "CD4-10-17b CAR with an inserted myc epitope, expressed on cells transduced with the SFFV/CAR-T-myc/GFP lentivirus (human) (UniProt P01730)", "assay": "flow cytometry, primary human T cells transduced with SFFV/CAR-T-myc/GFP, gated CD4+GFP+"}, "[3]": {"biological_target": "CD4-10-17b CAR with an inserted myc epitope, expressed on cells transduced with the SFFV/CAR-T-myc/GFP lentivirus (human) (UniProt P01730)", "assay": "flow cytometry, primary human T cells transduced with SFFV/CAR-T-myc/GFP, gated CD8+GFP+"}}}
{"substance": "9E10 anti-myc epitope antibody", "values": [{"measurement": "IFN-γ production by CD4+ GFP+ T cells (flow cytometry, overnight stimulation)", "setting": "[1]", "value": 3, "unit": "fold"}, {"measurement": "percent of transduced CD4+ T cells bound", "setting": "[2]", "value": 35, "unit": "%"}, {"measurement": "percent of transduced CD8+ T cells bound", "setting": "[3]", "value": 25, "unit": "%"}]}
